From US20180155402A1 (Molecular Partners, published 2018)
One block for each binder: values may come before it.

Columns and labels:
human HER2 [1] = target: T1, human HER2 (human, UniProt P04626 23-652, limits assumed); experiment: SPR
T1 construct: This is HER2 as used in the surface plasmon resonance experiments; also called ErbB2; Human Epidermal Growth Factor Receptor 2

human HER2 [2] = target: T1, human HER2; experiment: SPR, global fit over several concentrations; Protein #23-His
Description: (§1) Its affinity to HER2 was assessed by surface plasmon resonance as described in WO2014/083208.

HER2 on BT474 cells [3] = target: T2, HER2 on BT474 cells (human, UniProt P04626 23-1255); experiment: cell-based or functional assay
mouse serum albumin = mouse serum albumin (mouse, UniProt P07724 25-608); experiment: ProteOn SPR, PBS pH 7.4
mouse serum albumin, sequence (P07724 25-608 limits assumed): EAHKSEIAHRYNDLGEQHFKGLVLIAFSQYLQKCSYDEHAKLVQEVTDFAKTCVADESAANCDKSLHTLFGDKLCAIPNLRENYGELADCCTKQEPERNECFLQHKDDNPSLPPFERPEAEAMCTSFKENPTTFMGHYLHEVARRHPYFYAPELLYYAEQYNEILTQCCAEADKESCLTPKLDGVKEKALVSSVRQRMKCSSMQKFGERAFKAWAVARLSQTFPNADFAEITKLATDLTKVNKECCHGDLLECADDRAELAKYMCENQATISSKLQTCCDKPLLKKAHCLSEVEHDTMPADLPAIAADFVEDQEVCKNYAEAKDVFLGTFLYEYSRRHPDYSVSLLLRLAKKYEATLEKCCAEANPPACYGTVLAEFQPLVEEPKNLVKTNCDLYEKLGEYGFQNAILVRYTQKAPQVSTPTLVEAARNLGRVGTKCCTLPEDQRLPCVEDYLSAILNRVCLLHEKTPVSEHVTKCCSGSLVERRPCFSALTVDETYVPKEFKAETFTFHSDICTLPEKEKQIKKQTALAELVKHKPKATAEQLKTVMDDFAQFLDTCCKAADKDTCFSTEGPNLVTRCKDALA

[4] = target: cynomolgus monkey serum albumin (cynomolgus monkey, UniProt A2V9Z4 25-608); experiment: ProteOn SPR, PBS pH 7.4
cynomolgus monkey serum albumin, sequence (A2V9Z4 25-608 limits assumed): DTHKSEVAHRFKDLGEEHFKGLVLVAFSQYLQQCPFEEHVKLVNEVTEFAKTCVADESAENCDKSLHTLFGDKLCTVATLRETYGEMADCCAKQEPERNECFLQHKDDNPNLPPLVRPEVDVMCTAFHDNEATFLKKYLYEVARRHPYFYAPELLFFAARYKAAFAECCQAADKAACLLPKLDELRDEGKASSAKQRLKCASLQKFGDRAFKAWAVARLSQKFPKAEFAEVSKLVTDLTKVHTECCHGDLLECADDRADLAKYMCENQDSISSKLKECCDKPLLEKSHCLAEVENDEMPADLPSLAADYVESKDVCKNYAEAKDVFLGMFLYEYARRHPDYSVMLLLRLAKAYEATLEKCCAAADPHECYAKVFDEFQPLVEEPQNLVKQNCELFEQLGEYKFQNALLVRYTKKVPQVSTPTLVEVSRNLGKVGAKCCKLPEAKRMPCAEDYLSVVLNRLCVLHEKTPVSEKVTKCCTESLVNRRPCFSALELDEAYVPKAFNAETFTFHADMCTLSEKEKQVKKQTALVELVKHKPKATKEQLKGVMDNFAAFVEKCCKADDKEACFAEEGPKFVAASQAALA

human serum albumin [5] = target: T3, human serum albumin (human, UniProt P02768 25-609); experiment: ProteOn SPR, PBS pH 7.4
T3 construct: also called HSA

[6] = target: T4, extracellular domain of HER3 (UniProt P21860 20-643); experiment: surface plasmon resonance
T4 construct: extracellular domain; also called ErbB3

[7] = target: T5, extracellular domain of EGFR (UniProt P00533 25-645); experiment: surface plasmon resonance
T5 construct: extracellular domain; also called ErbB1; HER1

human serum albumin [8] = target: T3, human serum albumin; experiment: SPR; Protein #21 at 100 nM
HER2 on BT474 cells [9] = target: T2, HER2 on BT474 cells; experiment: cell-based or functional assay; remark: listed apart in the source
human HER2 [10] = target: T1, human HER2; experiment: SPR, global fit over several concentrations; Protein #21-His
Description: as §1

B1: Protein #17-His (designed binder)
chain: MRGSHHHHHHGSDLGKKLLEAARAGQDDEVRELLKAGADVNAKDEYGLTPLYLATAHGHLEIVEVLLKAGADVNAVDAIGFTPLHLAAFIGHLEIAEVLLKAGADVNAQDKFGKTPADIAAGAGNEDIAEVLQKAA
Kd (human HER2 [1]): 0.152 nM

B2: Protein #16-His (designed binder)
chain: MRGSHHHHHHGSDLGIKLLFAAAKGQDDEVRELLKAGADVNAKDFQGVTPLHIAAQSGHLEIVEVLLKAGADVNAKDVTGDTPLHLAAQHGHLEIVEVLLKAGADVNAQDERGWTPADLAADWGHEDIAEVLQKAA
Kd (human HER2 [1]): 0.009 nM

B4: Protein #14-His (designed binder)
chain: MRGSHHHHHHGSDLGKKLLEAARAGQDDEVRELLKAGADVNAKDYFSHTPLHLAARNGHLKIVEVLLKAGADVNAKDFAGKTPLHLAANEGHLEIVEVLLKAGADVNAQDIFGKTPADIAADAGHEDIAEVLQKAA
Kd (mouse serum albumin): < 100 nM
Kd [4]: < 100 nM
Kd (human serum albumin [5]): < 100 nM

B5: Protein #13-His (designed binder)
chain: MRGSHHHHHHGSDLGKKLLEAARAGQDDEVRELLKAGADVNAKDYFSHTPLHLAARNGHLKIVEVLLKAGADVNAKDFAGKTPLHLAANDGHLEIVEVLLKAGADVNAQDIFGKTPADIAADAGHEDIAEVLQKAA
Kd (mouse serum albumin): < 100 nM
Kd [4]: < 100 nM
Kd (human serum albumin [5]): < 100 nM

B6: Protein #21 (designed binder)
chain: GSDLGKKLLEAARAGQDDEVRELLKAGADVNAKDYFSHTPLHLAARNGHLKIVEVLLKAGADVNAKDFAGKTPLHLAANEGHLEIVEVLLKAGADVNAQDIFGKTPADIAADAGHEDIAEVLQKAAGSPTPTPTTPTPTPTTPTPTPTGSDLGIKLLFAAAKGQDDEVRELLKAGADVNAKDFQGVTPLHIAAQSGHLEIVEVLLKAGADVNAKDVTGDTPLHLAAQHGHLEIVEVLLKAGADVNAQDERGWTPADLAADWGHEDIAEVLQKAAGSPTPTPTTPTPTPTTPTPTPTGSDLGKKLLEAARAGQDDEVRELLKAGADVNAKDEYGLTPLYLATAHGHLEIVEVLLKAGADVNAVDAIGFTPLHLAAFIGHLEIAEVLLKAGADVNAQDKFGKTPADIAAGAGNEDIAEVLQKAAGSPTPTPTTPTPTPTTPTPTPTGSDLGKKLLEAARAGQDDEVRELLKAGADVNAKDYFSHTPLHLAARNGHLKIVEVLLKAGADVNAKDFAGKTPLHLAANEGHLEIVEVLLKAGADVNAQDIFGKTPADIAADAGHEDIAEVLQKAA
notes: Untagged
EC50, induction of apoptosis in BT474 cells (Caspase 3/7 activation) (HER2 on BT474 cells [3]): 2.4 nM
binding result [6]: no binding
binding result [7]: no binding
Kd (human serum albumin [8]): 21 nM
phosphorylation AKT S124, fold change to PBS (mass spectrometry) (HER2 on BT474 cells [9]): 0.99 fold change to PBS
phosphorylation AKT S129, fold change to PBS (mass spectrometry) (HER2 on BT474 cells [9]): 0.93 fold change to PBS
phosphorylation RAF S642, fold change to PBS (mass spectrometry) (HER2 on BT474 cells [9]): 0.81 fold change to PBS
phosphorylation RAF T631/T638/T640/T641/S642, fold change to PBS (mass spectrometry) (HER2 on BT474 cells [9]): 0.48 fold change to PBS
phosphorylation RPS6KB1/S6Kinase S441/T444/S447, fold change to PBS (mass spectrometry) (HER2 on BT474 cells [9]): 0.63 fold change to PBS
phosphorylation RPS6KB1/S6Kinase T444/S447, fold change to PBS (mass spectrometry) (HER2 on BT474 cells [9]): 0.92 fold change to PBS
phosphorylation mTOR S2448/S2454, fold change to PBS (mass spectrometry) (HER2 on BT474 cells [9]): 0.79 fold change to PBS

Results, then the binder that gave them:

Kd (human HER2 [2]): 0.064 nM
IC50, inhibition of BT474 cell proliferation (BrdU) (HER2 on BT474 cells [3]): 2.4 nM
B3: Protein #23-His (designed binder)
chain: MRGSHHHHHHGSDLGKKLLEAARAGQDDEVRELLKAGADVNAKDYFSHTPLHLAARNGHLKIVEVLLKAGADVNAKDFAGKTPLHLAANEGHLEIVEVLLKAGADVNAQDIFGKTPADIAADAGHEDIAEVLQKAAGSPTPTPTTPTPTPTTPTPTPTGSDLGVKLLWAAARGQDDEVRELLKAGADVNAKDFQGITPLHIAATNGHLEIVEVLLKAGADVNAKDITGETPLHHAADSGHLEIVEVLLKAGADVNAQDKAGVTPADLAAAWGHEDIAEVLQKAAGSPTPTPTTPTPTPTTPTPTPTGSDLGKKLLEAARAGQDDEVRELLKAGADVNAKDEYGLTPLYLATAHGHLEIVEVLLKAGADVNAVDAIGFTPLHLAAFIGHLEIAEVLLKAGADVNAQDKFGKTPADIAAGAGNEDIAEVLQKAAGSPTPTPTTPTPTPTTPTPTPTGSDLGKKLLEAARAGQDDEVRELLKAGADVNAKDYFSHTPLHLAARNGHLKIVEVLLKAGADVNAKDFAGKTPLHLAANEGHLEIVEVLLKAGADVNAQDIFGKTPADIAADAGHEDIAEVLQKAA

IC50, inhibition of BT474 cell proliferation (BrdU) (HER2 on BT474 cells [3]): 1.5 nM
Kd (human HER2 [10]): 0.027 nM
B7: Protein #21-His (designed binder)
chain: MRGSHHHHHHGSDLGKKLLEAARAGQDDEVRELLKAGADVNAKDYFSHTPLHLAARNGHLKIVEVLLKAGADVNAKDFAGKTPLHLAANEGHLEIVEVLLKAGADVNAQDIFGKTPADIAADAGHEDIAEVLQKAAGSPTPTPTTPTPTPTTPTPTPTGSDLGIKLLFAAAKGQDDEVRELLKAGADVNAKDFQGVTPLHIAAQSGHLEIVEVLLKAGADVNAKDVTGDTPLHLAAQHGHLEIVEVLLKAGADVNAQDERGWTPADLAADWGHEDIAEVLQKAAGSPTPTPTTPTPTPTTPTPTPTGSDLGKKLLEAARAGQDDEVRELLKAGADVNAKDEYGLTPLYLATAHGHLEIVEVLLKAGADVNAVDAIGFTPLHLAAFIGHLEIAEVLLKAGADVNAQDKFGKTPADIAAGAGNEDIAEVLQKAAGSPTPTPTTPTPTPTTPTPTPTGSDLGKKLLEAARAGQDDEVRELLKAGADVNAKDYFSHTPLHLAARNGHLKIVEVLLKAGADVNAKDFAGKTPLHLAANEGHLEIVEVLLKAGADVNAQDIFGKTPADIAADAGHEDIAEVLQKAA
notes: also called Protein #31-His
